From paper PMC5811355

Target: FhuA 13R1 (Escherichia coli) (UniProt P06971)
Assay: continuous wave EPR of spin-labelled protein

UniProt P06971, sequence (P06971 34-747): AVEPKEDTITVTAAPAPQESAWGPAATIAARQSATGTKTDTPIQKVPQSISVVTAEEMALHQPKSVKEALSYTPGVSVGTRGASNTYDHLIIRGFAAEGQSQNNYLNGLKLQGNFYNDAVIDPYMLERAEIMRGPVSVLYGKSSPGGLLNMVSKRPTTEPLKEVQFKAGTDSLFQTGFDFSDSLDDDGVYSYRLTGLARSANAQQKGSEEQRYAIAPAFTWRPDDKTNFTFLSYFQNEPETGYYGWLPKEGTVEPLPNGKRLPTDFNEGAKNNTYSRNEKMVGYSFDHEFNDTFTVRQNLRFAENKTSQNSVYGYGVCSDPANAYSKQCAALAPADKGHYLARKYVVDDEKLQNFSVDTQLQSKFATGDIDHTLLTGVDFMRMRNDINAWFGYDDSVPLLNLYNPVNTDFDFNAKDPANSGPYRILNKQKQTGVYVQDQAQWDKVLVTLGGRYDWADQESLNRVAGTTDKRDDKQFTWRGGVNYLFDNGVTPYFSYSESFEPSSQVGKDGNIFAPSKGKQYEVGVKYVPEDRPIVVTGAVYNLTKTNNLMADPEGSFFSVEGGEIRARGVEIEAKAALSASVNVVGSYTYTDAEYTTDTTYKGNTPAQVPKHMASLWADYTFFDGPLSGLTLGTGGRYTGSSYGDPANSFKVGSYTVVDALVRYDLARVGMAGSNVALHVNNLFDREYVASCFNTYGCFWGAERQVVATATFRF

fraction of FhuA bound to TonB: 95%
Substance: TonB (103-239) (from UniProt P02929 103-239) (domain or fragment)
